Laboratory results published in a protein production outcome set (Wang et al. 2014).

Assay: label from the status in PepcDB records

| Sequence | protein production |
| --- | --- |
| RDSLFICAVATTETSRIPGITGAGASPELTEYTPAADVELIVHDAPRCLPEIPQTIVEGEAAPTPAVITKAALELAEVPFMVADAGASVKPDVPYININSEPGGDIRTGRAVTEPQRIYERGLMVGRTLSSLTEHLVVGESTPAGTTTALGVLTALGYDADFRVSASMPHNPHDLKREVVMAGLSNAGIEKGDCSREPFRAVEAVGDPMIPAVAGICMGSTVPVTLAGGTQMTAVCALMRAIDPDFDFSDTAIATTIFVAEDSTSDINRIAEQIGDIDIYVVDPDFGSASHRGLHEYLNGSVKEGVGAGGAMLLALLH | failed |
| RDTSVVVEHTSANPTGPVHVGRARNPIIGDAVARVLDYAGYDVDRHYYVNDAGRQIAVFTWAYETFDEDDLPEPERESPEYEMVRYYRKGNTILEDGDPDEVEAAEAEVQSILQGLEDGDEETYERVAEVVDTVLGGMQNTLGRLPAEFDEFVKETKFMRNGDTDDLVDRLKGLDCAVYEEDAWQLDLPDFEKNLVFLRSDGTSLYTTRDLAHHEWKFDTYDRAVTVLGEDHKLQADQLAAALELLDNDTDQLRQVFYSWVNLPEGGMSTREGTGIDLDDLLDEAIDRAREEVESRLDDRTRGDLDEDDIDRIARQVGIGAVRYDIVSKQPTKGITFEWDRALDFEAQSAPYVQYV | failed |
| REMGCAVTVADSNSAQLDKLAQQTGCQTISPADVVSDGFQDYTVVVTSPGWRPDSPLLVAAQSAGLEVIGDVELVYRLDRAEVFGPKRTWMVVTGTNGKTTTTAMLAEIMQHSGARAAAVGNIGVSVADAVRTQPRIDVLVAELSSFQL | failed |
| RESVEKQKKLEAILVSMDSGVIAVDRKHKIIMINPYAEKIFGIDKNIIGQSLMDCIRNYEFEDIFNKRAEGYAEIKTSWPKERNLRIKTADIINGYECIGTVAVVQDIT | failed |
| RFGLPVNGALDQYSARAANILAGNLDNHPLLEITALDFRMKANSDVLIAVTGAPLTLTVGGRPCSQWEPVSVRAGESVSIRGIHRGLRAYLAIHGSIEAGTLLGSAAPDTVVGFGLQLQEGTTLLSRRSVSPVRQPYFDLPLFRLGLERPSMGSDLSVDVTDGPDVAEFGESGELLFTSEYVVSGRSNHIGLRLGGELPERTSSDEVLSRGVPVGAVEVPSREELLVLHRGRGVTAGYPVLAVVTSTGLDVLAQARPGDKVRFRKTTVAEATAAHRRSRAQ | failed |
| RFKQNADHIVLTHVFNGGSAESAALCPQDKIIALDGYACTDFAAQWARYHVRAKINIHFFRAGILRQTVLTVQATAADTAI | failed |
| RGRGGTGGARRLSCGARRRAARGTSPGRRLSTAWSQPQPPPEEYAGADDVSQSPVAEEPSWVPSPRPPVPHESPEPPSGRSLVQRDIQAFLNQCGASPGEARHWLTQFQTCHHSADKPFAVIEVDEEVLKCQQGVSSLAFALAFLQRMDMKPLVVLGLPAPTAPSGCLSFWEAKAQLAKSCKVLVDALRHNAAAAVPFFGGGSVLRAAEPAPHASYGGIVSVETDLLQWCLESGSIPILCPIGETAARRSVLLDSLEVTASLAKALRPTKIIFLNNTGGLRDSSHKVLSNVNLPADLDLVCNAEWVSTKERQQMRLIVDVLSRLPHHSSAVITAASTLLTELFSNKGSGTLFKNAERMLRVRSLDKLDQGRLVDLVNASFGKKLRDDYLASLRPRLHSIYVSEGYNAAAILTMEPVLGGTPYLDKFVVSSSRQGQGSGQMLWECLRRDLQTLFWRSRVTNPINPWYFKHSDGSFSNKQWIFFWFGLADIRDSYELVNHAKGLPDSFHKPASDPGS | failed |
| RGSRFTWRKECLAVMESYFNENQYPDEAKREEIANACNAVIQKPGKKLSDLERVTSLKVYNWFANRRKEIKRRANIAAILES | not failed |
| RKEMTAACTPRRRIINLTSVLSLQEEINEQGHEVLREMLHNHSFVGCVNPQWALAQHQTKLYLLNTTKLSEELFYQILIYDFANFGVLRLSEPAPLFDLAMLALDSPESGWTEEDGPKEGLAEYIVEFLKKKAEMLADYFSLEIDEEGNLIGLPLLIDNYVPPLEGLPIFILRLATEVNWDEEKECFESLSKECAMFYSIRKQYISEESTLSGQQSEVPGSIPNSWKWTVEHIVYKALRSHILPPKHFTEDGNILQLANLPDLYKVFERC | failed |
| RKKPVSQSLEFPTRYSPYRPYRCVHQGCFAAFTIQQNLILHYQAVHKSDLPAFSAEVEEE | not failed |
| RNPLFTCVISSIETTLSIPISGVHRDVIKYTPSADVELVFYGKSLTLKTPPIDATGSPTPATITRACVELKNIKNLHIDAGAFVKPKIPFIEIDEKPTGRIEEGKAMNNSKELYMKGYLLGKNLDAELLIVGESVPGGTTTALGVLLGLGYDAEGKVSSGSINNPHELKIKVVREGLKKAGINEKSSVFDVLNAVGDKMMPVVAGLAISFAERNKPVILAGGTQMSAVLAVIKEINKKVLDKNLIAIGTTEFVLNDKKGDLKGIVEQIGNVPVLASKFYFEKAKIEGLKNYCKGSVKEGVGAGGIAVYSIVNDL | failed |
| RNVWVVAELDEQGVSEASLQMLTPARRIADKLGESVVGVIAGPPGSSQLAVEMVERGADEVIVVEHERLSEYYPDVVGSVIVELSLKYKPSVILFAATARGREMAPYVANTLKTGITADCTDFDVDPKTRDVLLIRPPFSAIMLAYIRTPFRRPQIGTARPNVFPLPERQPGRQGRIVREEVEPPEPMARLVNRVRIPRSEVP | failed |
| RPAIRKRLLKPKVLDSSPRALVGHRAEVLEDVGATSGQVRLDGSIWSARSMDPTHTFAEGEIVSVIDIQGTTAIVWKEA | not failed |
| RPHVVKVYSEDGACRSVEVAAGATARHVCEMLVQRAHALSDETWGLVECHPHLALERGLEDHESVVEVQAAWPVGGDSRFVFRKNFA | not failed |
| RPQTTDNWQNTEIEGIDIMLAVDVSTSMLAEDLKPNRLEAAKQVASEFINGRPNDNIGLTIFAGESFTQCPLTVDHGVLLNLFNSIKGDIAQRGLIEDGTAIGMGIANAVTRLKDSKAKSKVIILLTDGSNNRGDISPLTAAEIAKQFGIRIYTIGVGTNGTAPYPMQTYAGTQYVNVPVEIDEKTLTEIAGTTNGNYFRATSNSKLKEVYQEIDKLEKTKL | failed |
| RQLSRHTYAVRALTDIDDFNAQFNTDFDDEEVDTIGGLIMQTFGYLPKRGEEIILKNLQFKVTSADSRRLIQLRVTVPDEHLAEMNNVDEKSE | failed |
| RQVQKELGDVLVRLHNPVVLTPTTVQVTWTVDRQPQFIQGYRVMYRQTSGLQATSSWQNLDAKVPTERSAVLVNLKKGVTYEIKVRPYFNEFQGMDSESKTVRTTEE | not failed |
| RRHYIDAFGTGPGFAAVASFYPGCFRIKPPGGRDYDLVGPDIAQPLLLLMGDADTETPAAECVDKLTPLKAAGAPVEWHVYPSTTHCWDCQQLDGRSKTDVRGNHVAYRYQPDVVADSERRLFAFLER | failed |
| RSAEALFEKAVTPSDVGKLNRLVIPKHHAEKHFPLPSSNVSVKGVLLNFEDVNGKVWRFRYSYWNSSQSYVLTKGWSRFVKEKNLRAGDVVSFSRSNGQDQQLYIGWKSRSGSDLDA | not failed |
| RSLQLDKLVNEMTQHYENSVPEDLTVHVGDIVAAPLPTNGSWYRARVLGTLENGNLDLYFVDFGDNGDCPLKDLRALRSDFLSLPFQAIECSLARIA | not failed |
| RSMEDVRLHRKEKGDAYSFNWSLKIEADFQLPFDPTHTSMEGLNLNLDQEPQVLAANLRKAFSGIVAGNVKAEGIREIECKGPFSIHGDPVLMKKLDKLLQDFVEQHRMKLPGGSDYEPCYRIAHP | failed |
| RTRALYDLGRELASALTASQIIETAVGRLEPLFRAKVMLFIPNSEDRLRAATETGNDADAGVAQWVFDNQQPAGLGTNTLPSNAALYVPLKAPMRVRGVIALLPEDAVHPFLPEQQRLLETCAAQIALALERVHYVEVAQDAIV | failed |
| RTVAQNASETTVSYDTDTAVLSEADVLRIALSENATVKVADMDVRKQEYARRAARADLFPKVDLNGVYSHTLKKQVLYIDMPGFSSSEGIEMGRTHNTQGGVNVSMPLVSAQLWKSIAMTGEQLDLALEKARSSRIDLVAEVKKAYLSVLLAEDSYGVFKRSYDNALANYKNISDKFDRGLVAEYDKIRANVQVRNIEPNLLQAQNSVALALWQLKVLMSMEVETPIRLSGSLSDYKEQVYTGYFAADTLISNNSSLRQLDIQRRLAVSADKLNKYSFLPTLNLGGQYTYSLNSNDIKFWGEGQR | not failed |
| RVKESITRTSRAPSVATVGSICDLNLKIPEINSSDMSAHVTSPSGRVTEAEIVPMGKNSHCVRFVPQEMGVHTVSVKYRGQHVTGSPFQFTVGPLGEGG | not failed |
